Assay [1] has as its target T1, Thrombin (Homo sapiens, UniProt P00734).
T1 construct: purchased Haematologic Technologies
The assay is described as follows: Chromogenic substrate enzyme inhibition assay, thrombin. The class given is biochemical. Particulars: substrate S2366, read-out: KD1 IC50. An excerpt:
(§1) The following synthetic substrates were used to measure enzyme activities: Spectrozyme® fvIIa (American Diagnostica, Stamford, Conn.) for HGFA and ChromozymtPA (Roche Molecular Biochemicals, Indianapolis, Ind.) for tissue factor/FVIIa. The following substrates were from Diapharma, Westchester, Ohio: S2222 for factor Xa, S2302 for plasma kallikrein, S2366 for activated protein C, thrombin, hepsin and plasmin, S2444 for uPA, S2288 for factor XIa, FXIIa and tPA, S2765 for matriptase complement factor C1s, chymotrypsin and trypsin. Except for bovine trypsin (Worthington, Lakewood, N.J.), all enzymes used were of human origin. Factor Xa, factor XIa, thrombin, activated protein C and plasmin were from Haematologic Technologies (Essex Junction, Vt.). […]
(§2) The inhibitory activity of KD1 towards a panel of trypsin-like serine proteases was examined using assay conditions as described for measuring the inhibitory activity of HAI-1B ectodomain. […] After 20 min. incubation at room temperature, the appropriate substrate was added and the linear rates of substrate hydrolysis were determined by measuring the change in absorbance at 405 nm on a kinetic microplate reader (Molecular Devices, Sunnyvale, Calif.). […]

For assay [2], the target named is T2, uPA (Homo sapiens, UniProt P00749).
T2 construct: purchased Chemicon
Briefly: Chromogenic substrate enzyme inhibition assay, uPA. Particulars: substrate S2444, read-out: KD1 IC50. The class given is biochemical.
Description: as §1, §2

Consider “KD1: The first Kunitz domain of human HAI-1B, amino acids 246-303 (SEQ ID NO: 4), with polyhistidine leader, expressed in E. coli”, for which the concentration for half-maximal inhibition (IC50) in assay [1] and in assay [2] was above 1000 nM throughout.

Broadly, the IC50 is the point on the concentration scale where inhibition reaches its midpoint.

These data come from patent US7741096B2, “Crystal structure of hepatocyte growth factor activator complexed with Kunitz domain inhibitor” (Genentech, Inc., priority 2004, dated 2010).
